Measured values from FireProtDB (doi:10.1021/ja068849o).

Conditions: Escherichia coli (strain K12); pH 9.2; 37 °C; Urea; Fluorescence; Glycine 10 mM; reversible: Yes; whole UniProt chain shown

B1: Outer membrane protein A wild type, P0A910 (protein)
chain: MKKTAIAIAVALAGFATVAQAAPKDNTWYTGAKLGWSQYHDTGFINNNGPTHENQLGAGAFGGYQVNPYVGFEMGYDWLGRMPYKGSVENGAYKAQGVQLTAKLGYPITDDLDIYTRLGGMVWRADTKSNVYGKNHDTGVSPVFAGGVEYAITPEIATRLEYQWTNNIGDAHTIGTRPDNGMLSLGVSYRFGQGEAAPVVAPAPAPAPEVQTKHFTLKSDVLFNFNKATLKPEGQAALDQLYSQLSNLDPKDGSVVVLGYTDRIGSDAYNQGLSERRAQSVVDYLISKGIPADKISARGMGESNPVTGNTCDNVKQRAALIDCLAPDRRVEIEVKGIKDVVTQPQA
denaturant m value: 2.2 kcal/mol/M | denaturant midpoint (higher = more stable): 4.2 M | unfolding free energy: 9.3 kcal/mol
